To fix the notation:
B1: FADS1 (parent)
chain: LNFQIEHHLFPTMPRHNYHKVAPL
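Further: lentivirally expressed fusions sorted by FACS into six bins by GFP to DsRed ratio, PSI derived from sequencing read proportions per bin multiplied by bin number.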

In the data set the parent is B1. In words: protein stability index of a GFP-peptide fusion (GPS, HEK-293T) (PSI 1-6); higher = more stable. Conditions: c terminus: a fixed tail appended.
Turning to LNFQIEHHLFPTMPRHNVHKVAPL, the protein stability index came to 1.51.
In the case of LNFQIEHHLFPTMPRHNRHKVAPL it was 1.64; in that of LNFQIEHHLFPTMPRHNTHKVAPL, 2.27.
Then LNFQIEHHLFPTMPRHNWHKVAPL, with 2.78; and LNFQIEHHLFPTMPRHNDHKVAPL, with 1.44; and LNFQIEHHLFPTMPRHNQHKVAPL, with 2.17.
LNFQIEHHLFPTMPRHNKHKVAPL: the protein stability index came to 2.25.
In the case of LNFQIEHHLFPTMPRHNEHKVAPL it was 2.65.
As to LNFQIEHHLFPTMPRHNFHKVAPL, the protein stability index amounted to 2.72.
In the case of LNFQIEHHLFPTMPRHNSHKVAPL it was 1.69; in that of LNFQIEHHLFPTMPRHNCHKVAPL, 2.42.
In the case of LNFQIEHHLFPTMPRHNGHKVAPL it was 1.81; in that of LNFQIEHHLFPTMPRHNNHKVAPL, 1.81.
Then LNFQIEHHLFPTMPRHNPHKVAPL, with 2.99; and LNFQIEHHLFPTMPRHNIHKVAPL, with 2.23.
LNFQIEHHLFPTMPRHNAHKVAPL: the protein stability index amounted to 2.95.
Then LNFQIEHHLFPTMPRHNMHKVAPL, with 2.18; and LNFQIEHHLFPTMPRHNLHKVAPL, with 1.69; and LNFQIEHHLFPTMPRHNHHKVAPL, with 1.6.
In the case of LNFQIEHHLFPTQPRHNYHKVAPL it was 1.15; in that of LNFQIEHHLFPTRPRHNYHKVAPL, 1.4.
Then LNFQIEHHLFPTYPRHNYHKVAPL, with 2.83.
As for LNFQIEHHLFPTKPRHNYHKVAPL, the protein stability index worked out at 1.75.
Then LNFQIEHHLFPTWPRHNYHKVAPL, with 2.66; and LNFQIEHHLFPTFPRHNYHKVAPL, with 1.97.
As for LNFQIEHHLFPTEPRHNYHKVAPL, the protein stability index amounted to 1.35.
In the case of LNFQIEHHLFPTLPRHNYHKVAPL, the protein stability index was determined as 1.62.
Then LNFQIEHHLFPTGPRHNYHKVAPL, with 2.13; and LNFQIEHHLFPTDPRHNYHKVAPL, with 1.82.
Take LNFQIEHHLFPTCPRHNYHKVAPL: the protein stability index was 1.75.
Then LNFQIEHHLFPTIPRHNYHKVAPL, with 2.35; and LNFQIEHHLFPTHPRHNYHKVAPL, with 2.04.
Then LNFQIEHHLFPTAPRHNYHKVAPL, with 2.02; and LNFQIEHHLFPTNPRHNYHKVAPL, with 1.91.
As for LNFQIEHHLFPTVPRHNYHKVAPL, the protein stability index is 2.6.
In the case of LNFQIEHHLFPTSPRHNYHKVAPL it was 2.59; in that of LNFQIEHHLFATMPRHNYHKVAPL, 2.35.
For LNFQIEHHLFTTMPRHNYHKVAPL, the protein stability index worked out at 2.24.
Then LNFQIEHHLFDTMPRHNYHKVAPL, with 3.83; and LNFQIEHHLFSTMPRHNYHKVAPL, with 2; and LNFQIEHHLFETMPRHNYHKVAPL, with 2.56.
In the case of LNFQIEHHLFKTMPRHNYHKVAPL it was 2.46; in that of LNFQIEHHLFLTMPRHNYHKVAPL, 2.53.
In the case of LNFQIEHHLFFTMPRHNYHKVAPL it was 2.77.
Regarding LNFQIEHHLFNTMPRHNYHKVAPL, the protein stability index was 2.27.
In the case of LNFQIEHHLFHTMPRHNYHKVAPL it was 3.14; in that of LNFQIEHHLFQTMPRHNYHKVAPL, 2.73; in that of LNFQIEHHLFCTMPRHNYHKVAPL, 2.3.
Then LNFQIEHHLFITMPRHNYHKVAPL, with 2.19.
In the case of LNFQIEHHLFVTMPRHNYHKVAPL it was 2.17; in that of LNFQIEHHLFWTMPRHNYHKVAPL, 3.17; in that of LNFQIEHHLFRTMPRHNYHKVAPL, 1.81.
For LNFQIEHHLFGTMPRHNYHKVAPL, the protein stability index is 1.9.
LNFQIEHHLFYTMPRHNYHKVAPL: the protein stability index came out at 2.96.
Regarding LNFQIEHHLFPHMPRHNYHKVAPL, the protein stability index turned out to be 1.46.
In the case of LNFQIEHHLFPPMPRHNYHKVAPL it was 3.45; in that of LNFQIEHHLFPSMPRHNYHKVAPL, 2.65.
Regarding LNFQIEHHLFPFMPRHNYHKVAPL, the protein stability index is 2.79.
Then LNFQIEHHLFPWMPRHNYHKVAPL, with 2.45.
In the case of LNFQIEHHLFPGMPRHNYHKVAPL it was 1.47; in that of LNFQIEHHLFPQMPRHNYHKVAPL, 1.99; in that of LNFQIEHHLFPYMPRHNYHKVAPL, 2.5.
With LNFQIEHHLFPVMPRHNYHKVAPL, the protein stability index is 2.29.
Then LNFQIEHHLFPEMPRHNYHKVAPL, with 2.42; and LNFQIEHHLFPNMPRHNYHKVAPL, with 1.77.
Then LNFQIEHHLFPMMPRHNYHKVAPL, with 1.73; and LNFQIEHHLFPLMPRHNYHKVAPL, with 2.08; and LNFQIEHHLFPDMPRHNYHKVAPL, with 1.98.
Then LNFQIEHHLFPAMPRHNYHKVAPL, with 2.56; and LNFQIEHHLFPCMPRHNYHKVAPL, with 2.74.
With LNFQIEHHLFPKMPRHNYHKVAPL, the protein stability index was 1.92.
With LNFQIEHHLFPIMPRHNYHKVAPL, the protein stability index is 2.5.
Then LNFQIEHHLYPTMPRHNYHKVAPL, with 2.17; and LNFQIEHHLVPTMPRHNYHKVAPL, with 1.05.
As to LNFQIEHHLTPTMPRHNYHKVAPL, the protein stability index was 1.39.
On to LNFQIEHHLWPTMPRHNYHKVAPL, for which the protein stability index was 2.
Then LNFQIEHHLSPTMPRHNYHKVAPL, with 1.66; and LNFQIEHHLFPTMCRHNYHKVAPL, with 3.64.
For LNFQIEHHLFPTMERHNYHKVAPL, the protein stability index came out at 2.13.
Consider LNFQIEHHLFPTMVRHNYHKVAPL, for which the protein stability index is 2.38.
In the case of LNFQIEHHLFPTMGRHNYHKVAPL it was 2.43; in that of LNFQIEHHLFPTMMRHNYHKVAPL, 2.44.
Then LNFQIEHHLFPTMRRHNYHKVAPL, with 1.76.
In the case of LNFQIEHHLFPTMIRHNYHKVAPL it was 2.08; in that of LNFQIEHHLFPTMQRHNYHKVAPL, 2.54; in that of LNFQIEHHLFPTMHRHNYHKVAPL, 1.9.
Turning to LNFQIEHHLFPTMNRHNYHKVAPL, the protein stability index was 3.36.
On to LNFQIEHHLFPTMFRHNYHKVAPL, for which the protein stability index was 2.39.
In the case of LNFQIEHHLFPTMLRHNYHKVAPL it was 1.18.
Then LNFQIEHHLFPTMSRHNYHKVAPL, with 2.71; and LNFQIEHHLFPTMDRHNYHKVAPL, with 2.52.
In the case of LNFQIEHHLFPTMTRHNYHKVAPL it was 1.9.
Consider LNFQIEHHLFPTMYRHNYHKVAPL, for which the protein stability index stood at 3.17.
In the case of LNFQIEHHLFPTMARHNYHKVAPL it was 2.64.

The values are drawn from the supplement of paper PMC10567573.
